Molecular target: 14-3-3ζ (UniProt P63104)
Test: fluorescence polarisation

14-3-3ζ, sequence (P63104 whole entry): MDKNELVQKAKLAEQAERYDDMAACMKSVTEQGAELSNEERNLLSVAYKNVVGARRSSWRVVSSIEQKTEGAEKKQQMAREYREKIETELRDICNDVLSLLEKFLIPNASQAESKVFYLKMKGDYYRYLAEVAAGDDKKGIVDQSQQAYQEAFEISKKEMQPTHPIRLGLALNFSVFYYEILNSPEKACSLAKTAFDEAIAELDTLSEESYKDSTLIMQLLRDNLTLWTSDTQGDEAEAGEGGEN

Row | Kd [µM] | Substance
1 | 34.9 | H3K27acS28ph (25–38) (from UniProt P68431 26-39) (peptide)
2 | 18.7 | H3S28ph (25–38) (from UniProt P68431 26-39) (peptide)
3 | 162 | H3S28phP30A (25–38) (from UniProt P68431 26-39) (peptide)
